Test results taken from publication PMC3251568.

Target: c-Abl (UniProt P00519)
Test: anti-c-Abl IP, FLAG-PCNA western
Settings: reference: wild-type FLAG-PCNA; sites Y211

binding against the reference: weaker
Substance: PCNA (proliferating cell nuclear antigen) (from UniProt P12004) Y211F FLAG-PCNA
